As a reminder, the EC50 (read off the curve) is the concentration at which the effect is half-maximal. In general, Kd refers to a measure of binding affinity in units of concentration. As usually defined, the koff is the rate constant with which the complex falls apart. What is called kon is the second-order rate constant of association.

Residue numbers refer to the chain shown, from its start.

Experimental findings from patent US20250295801A1, “CD25 ANTIBODIES, ANTIBODY DRUG CONJUGATES, AND USES THEREOF” (Seagen Inc., priority 2024, published 2025) are described below.

The chains are these.
T1: recombinant human CD25 (human, UniProt P01589 22-213, limits assumed, biotinylated in the Octet kinetic assay (site not stated))
T1 construct: Soluble recombinant antigen; It was coated on plates for ELISA and used as bought biotinylated protein for BLI; The ELISA and BLI reagents may be different constructs; also called hCD25; CD25/IL2RA
T1 sequence: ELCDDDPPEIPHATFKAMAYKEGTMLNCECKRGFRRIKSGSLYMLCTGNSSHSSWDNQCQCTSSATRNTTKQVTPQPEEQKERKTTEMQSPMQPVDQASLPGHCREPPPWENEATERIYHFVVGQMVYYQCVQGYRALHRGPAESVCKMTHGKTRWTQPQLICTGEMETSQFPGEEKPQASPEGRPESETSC

T2: mouse CD25 on Yac-1 mouse lymphoma cells (mouse) (UniProt P01590)
T2 sequence (looked up): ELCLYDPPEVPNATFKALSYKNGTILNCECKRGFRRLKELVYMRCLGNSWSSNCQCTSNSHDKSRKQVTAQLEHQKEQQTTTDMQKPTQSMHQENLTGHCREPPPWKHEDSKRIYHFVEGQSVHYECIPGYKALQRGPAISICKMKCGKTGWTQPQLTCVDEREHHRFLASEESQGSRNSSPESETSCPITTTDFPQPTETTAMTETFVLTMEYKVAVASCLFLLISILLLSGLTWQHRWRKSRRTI

T3: human CD25 on CD25 expressing cells (human, UniProt P01589 22-272)
T3 construct: Endogenous CD25 on human lymphoma lines (L540cy, Karpas-299) and on human Treg cells; also called CD25 on L540cy cells; CD25 on Karpas-299 cells
T3 sequence: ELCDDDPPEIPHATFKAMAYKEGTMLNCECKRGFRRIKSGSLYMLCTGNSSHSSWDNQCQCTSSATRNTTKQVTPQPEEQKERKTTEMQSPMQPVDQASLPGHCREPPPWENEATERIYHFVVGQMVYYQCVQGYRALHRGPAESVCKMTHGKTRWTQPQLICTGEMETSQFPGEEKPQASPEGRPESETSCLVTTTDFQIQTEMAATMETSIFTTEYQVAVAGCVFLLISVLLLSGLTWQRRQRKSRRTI

T4: recombinant cynomolgus CD25 (cynomolgus, UniProt H6WS54 22-213)
T4 construct: also called cyno CD25; cynomolgus CD25/IL2RA
T4 sequence: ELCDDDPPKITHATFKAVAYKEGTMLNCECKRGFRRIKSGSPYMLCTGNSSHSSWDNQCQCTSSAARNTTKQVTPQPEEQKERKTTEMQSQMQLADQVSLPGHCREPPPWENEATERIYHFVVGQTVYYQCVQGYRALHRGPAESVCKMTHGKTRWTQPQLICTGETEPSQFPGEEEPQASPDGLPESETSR

B1: SG25Ab-9 variant FH100AA (antibody, V domains shown)
VH: QVQLVQSGAEVKKPGESLKISCKGSGYSSTSYWIGWVRQMPGKGLEWMGIIYPGDSDTRYSPSFQGQVTISADKSISTAYLQWSSLKASDTAMYYCARLGSYYAADIWGRGTMVTVSS
VL: QSALTQPASVSASPGQSITISCTGTSSDVGAYIYVSWYQQLSGKPPKLILYDVSKRPSGISDRFSGSKSGNTASLTISGLQADDEADYYCSSYTRSSTWVFGGGTQLTVLG
B2: SG25Ab-9 variant FH100AN (antibody, V domains shown)
VH: B1 VH with A105N
VL: B1 VL
B3: SG25Ab-9 variant DH101K (antibody, V domains shown)
VH: B1 VH with A105F, D106K
VL: B1 VL
B4: PC61 mIgG2a (antibody, from another filing, V domains shown)
VH: EVQLQQSGAELVRPGTSVKLSCKVSGDTITAYYIHFVKQRPGQGLEWIGRIDPEDDSTEYAEKFKNKATITANTSSNTAHLKYSRLTSEDTATYFCTTDNMGATEFVYWGQGTLVTVSS
VL: QVVLTQPKSVSASLESTVKLSCKLNSGNIGSYYMHWYQQREGRSPTNLIYRDDKRPDGAPDRFSGSIDISSNSAFLTINNVQTEDEAMYFCHSYDGRMYIFGGGTKLTV
B5: SG25Ab-9 variant YH32A (antibody, V domains shown)
VH: B1 VH with Y32A, A105F
VL: B1 VL
B6: SG25Ab-9 variant YH27A (antibody, V domains shown)
VH: B1 VH with Y27A, A105F
VL: B1 VL
B7: SG25Ab-9 variant SH55N (antibody, V domains shown)
VH: B1 VH with S56N, A105F
VL: B1 VL
B8: SG25Ab-9 variant GH53Y (antibody, V domains shown)
VH: B1 VH with G54Y, A105F
VL: B1 VL
B9: SG25Ab-9 variant YH52A (antibody, V domains shown)
VH: B1 VH with Y52A, A105F
VL: B1 VL
B10: SG25Ab-9 variant SH28W (antibody, V domains shown)
VH: B1 VH with S28W, A105F
VL: B1 VL
B11: CD25 antibody SG25Ab-4 (antibody, human IgG1, lambda, V domains shown)
VH: EVQLVQSGAEVKKPGESLKISCKGPEYSFNRYWIAWVRQRPGKGLEWMGIIYPGDSDARYSPTFEGHVTLSADMSLTTAYLQWSSLRASDTAMYYCARLGSYYAFDIWGKGTMVTVSS
VL: QSALTQPASVSGSPGQSITIFCTGTSSDVGGYNYVSWYQQHPGKAPKLMIYDVSKRPSGVSNRFSGSKSGNTASLTISGLQAEDEADYYCSSYTSSSTWVFGGGTQLTVLS
notes: IgG1 format; also called SGAb25-4
B12: SG25Ab-9 variant YH99A (antibody, V domains shown)
VH: B1 VH with Y103A, A105F
VL: B1 VL
notes: Kabat-type numbering, not linear
B13: SG25Ab-9 variant DH54K (antibody, V domains shown)
VH: B1 VH with D55K, A105F
VL: B1 VL
B14: SG25Ab-9 variant DH56K (antibody, V domains shown)
VH: B1 VH with D57K, A105F
VL: B1 VL
B15: SG25Ab-9 variant AH100F (antibody, V domains shown)
VH: B1 VH with A104F, A105F
VL: B1 VL
B16: SG25Ab-9 variant GH96W (antibody, V domains shown)
VH: B1 VH with G100W, A105F
VL: B1 VL

One experiment has as its target T1, recombinant human CD25. The experiment in a line: saturation binding ELISA on recombinant human CD25. On the technique in general: ELISA stands for enzyme-linked immunosorbent assay.
Experimental: (§1) Saturation binding ELISA experiments were performed using soluble recombinant antigens, which were diluted to an appropriate concentration in 50 mM carbonate buffer, pH 9.6. To each well of a 96- or 384-well Maxisorb ELISA plate was added 100 μL of soluble antigen. The plate was sealed and stored at 4° C. overnight. The plate was then washed 3-5 times with PBS-T was buffer (PBS, pH 7.4+0.05% Tween-20). The wells were blocked using 300 μL/well of PBS-T buffer containing BSA for 1 hour at room temperature, then washed 3-5 times with PBS-T. Dilutions of antibodies were prepared in blocking buffer and added to each well in a volume of 100 μL. The antibodies were incubated for 1 hour at room temperature, and then washed 3-5 times with PBS-T. HRP-conjugated secondary antibodies (anti-human Fc) were then added and incubated for 1 hour at room temperature. The plate was washed 3-5 times with PBS-T. The ELISA was developed by adding 100 μL of TMB solution and incubating for 3-15 min at room temperature. To stop the reaction, 100 μL of 1 N sulfuric acid was added to each well. The absorbance at 450 nm was determined using a Spectramax 190 plate reader (Molecular Biosciences) and the data plotted using GraphPad Prism 6.
On to B1, for which the “EC50 (read off the curve)” value was ~0.8 nM.
As for B2, the 50% effective concentration (EC50 (read off the curve)) is ~0.3 nM.
On to B3, for which the “EC50 (read off the curve)” value is ~0.2 nM.

Another experiment addresses T2, mouse CD25 on Yac-1 mouse lymphoma cells (mouse). In words: saturation binding by flow cytometry on Yac-1 cells.
Consider B4, for which the Kd was 0.7 nM.

For another experiment, the target named is T3, human CD25 on CD25 expressing cells. In words: saturation binding by flow cytometry on L540cy cells (CD25: 55,000 per cell), MFI (Gmean).
Experimental: (§2) For cellular binding analysis by FACS, cells expressing the target protein of interest (2×10⁵) were treated with a serial dilution of indicated antibody in staining buffer (PBS, 5% FBS, 0.2% NaN₃). Samples were incubated for 1 hour on ice and washed twice with ice-cold staining buffer. Cells were resuspended with anti-human IgG-AF488 or IgG-AF647 (JacksonImmunoResearch), 1:200 dilution in staining buffer) for 1 hour on ice. Cells were washed twice with ice cold staining buffer and resuspended in staining buffer. Labeled cells were examined by flow cytometry on an Invitrogen Attune NxT flow cytometer gated to exclude nonviable cells, and the data analyzed using FlowJo10 software. When determined, the KD was calculated using GraphPad Prism 6 using non-linear regression.
(§3) Saturation binding analysis was also performed using high CD25 expressing L540cy cells.
As to B5, the “EC50 (read off the curve)” value is ~5 nM.
On the same count and under the same terms, next, B6: ~0.9 nM; B7: ~0.9 nM.
Consider B8, for which the concentration giving a half-maximal response (EC50 (read off the curve)) was 1 to 2 nM.
On to B9, for which the “EC50 (read off the curve)” value was ~4 nM.
As to B10, the “EC50 (read off the curve)” value is ~0.9 nM.

Another experiment has the same target. In words: saturation binding by flow cytometry on Karpas 299 cells (CD25: 123,000 per cell), GeoMean MFI. In general terms: In flow cytometry, cells or beads pass a laser one at a time.
Experimental: as §2
For the molecule B11, the binding result is given as “binds”.

The target in another experiment is T4, recombinant cynomolgus CD25. In words: ELISA on plate-coated cynomolgus CD25.
Experimental: as §1
In the case of B11, the half-maximal effective concentration (EC50 (read off the curve)) was ~0.1 nM.

A further experiment deals with T1, recombinant human CD25. In words: BLI kinetics (Octet RED384), biotinylated hCD25 on SAX tips, 1:1 global fit. (BLI is a label-free optical method that tracks binding on a fibre tip over time.)
Experimental: Biotinylated recombinant human CD25 was obtained from Acro Biosystems. Biotinylated hCD25 protein was loaded on SAX (High sensitivity streptavidin) tips at 0.8 nM loading density. Affinity measurements were run using a ForteBio Octet RED384 instrument in the kinetic buffer comprising 1×PBS, 0.1% BSA, 0.02% Tween20, pH 7.4. Association measurements were performed for 300 seconds and disassociation measurements were performed for 900 seconds. Each curve was reference subtracted and modeled using a 1:1 global fit. KD results are reported as kₐ divided by kd.
For B12, the equilibrium dissociation constant (Kd) is 21.5 nM, the koff was found to be 0.0085 s⁻¹ and the on-rate (kon) was 390000 M⁻¹ s⁻¹.
B13: the Kd was found to be 24.2 nM, the koff stood at 0.0079 s⁻¹ and the kon stood at 330000 M⁻¹ s⁻¹.
In the same order, the values of B1 are 0.6 nM, 0.00017 s⁻¹ and 290000 M⁻¹ s⁻¹.
Turning to B14, the Kd was 151 nM, the dissociation rate constant (koff) is 0.004 s⁻¹ and the kon came out at 26000 M⁻¹ s⁻¹.
B2: the equilibrium dissociation constant (Kd) was determined as 0.3 nM, the koff was 5.7e-05 s⁻¹ and the kon was 200000 M⁻¹ s⁻¹.
Taken in the same sequence, the figures for B5 were 0.8 nM, 0.00023 s⁻¹ and 300000 M⁻¹ s⁻¹.
As for B15, the Kd was determined as 3.9 nM, the off-rate constant (koff) is 0.0012 s⁻¹ and the kon amounted to 310000 M⁻¹ s⁻¹.
For B6, the dissociation constant (Kd) was determined as 0.1 nM, the off-rate (koff) amounted to 2.6e-05 s⁻¹ and the kon was 240000 M⁻¹ s⁻¹.
Taken in the same sequence, the figures for B7 were 0.1 nM, 2.8e-05 s⁻¹ and 220000 M⁻¹ s⁻¹.
As for B8, the Kd worked out at 0.1 nM, the dissociation rate constant (koff) came to 8.1e-05 s⁻¹ and the kon is 1.6e+06 M⁻¹ s⁻¹.
Take B9: the Kd turned out to be 1.3 nM, the dissociation rate constant (koff) was 0.001 s⁻¹ and the kon worked out at 780000 M⁻¹ s⁻¹.
B16: the equilibrium dissociation constant (Kd) came out at 0.5 nM, the koff came out at 0.001 s⁻¹ and the on-rate (kon) amounted to 1.9e+06 M⁻¹ s⁻¹.
For B10, the Kd came out at 0.1 nM, the off-rate (koff) turned out to be 3.8e-05 s⁻¹ and the kon is 300000 M⁻¹ s⁻¹.
As to B3, the dissociation constant (Kd) was found to be 0.2 nM, the koff is 0.0001 s⁻¹ and the association rate constant (kon) turned out to be 420000 M⁻¹ s⁻¹.

The next experiment has as its target T3, human CD25 on CD25 expressing cells. In words: saturation binding by flow cytometry on L540cy cells (CD25: 55,000 per cell), MFI (Gmean). The source holds these as a separate data set.
Experimental: as §2, §3
Turning to B1, the concentration giving a half-maximal response (EC50 (read off the curve)) is 1 to 2 nM.
B2: the “EC50 (read off the curve)” value is 1 to 2 nM.
For B3, the “EC50 (read off the curve)” value was ~1 nM.

In the next experiment the target is T1, recombinant human CD25. The experiment in a line: saturation binding ELISA on recombinant human CD25. This is another data set of the same source.
Experimental: as §1
As for B6, the “EC50 (read off the curve)” value was ~0.2 nM.
On the same count and under the same terms, next, B7: ~0.2 nM.
B8: the concentration for a half-maximal effect (EC50 (read off the curve)) was ~0.2 nM.
B10: the “EC50 (read off the curve)” value was ~0.2 nM.
